Target: T1, recombinant calcineurin B (UniProt P63098 1-170)
T1 construct: calcineurin B (CnB), regulatory subunit of calcineurin; recombinant protein (rhCnB); also called CnB; rhCnB; source: provided by Haikou Qili Pharmaceutical Co., Ltd
Assay: MST; purified TLR4 ectodomain or soluble CD14 labelled with DyLight 488, 20 nM in MST buffer; CnB titrated in 16 1:1 dilutions; 10 min incubation; Monolith NT.115, 25 °C, 50% LED power, 20% MST power
Details: both partners purified

B1: soluble CD14 (receptor)
chain: TTPEPCELDDEDFRCVCNFSEPQPDWSEAFQCVSAVEVEIHAGGLNLEPFLKRVDADADPRQYADTVKALRVRRLTVGAAQVPAQLLVGALRVLAYSRLKELTLEDLKITGTMPPLPLEATGLALSSLRLRNVSWATGRSWLAELQQWLKPGLKVLSIAQAHSPAFSCEQVRAFPALTSLDLSDNPGLGERGLMAALCPHKFPAIQNLALRNTGMETPTGVCAALAAAGVQPHSLDLSHNSLRATVNPSAPRCMWSSALNSLNLSFAGLEQVPKGLPAKLRVLDLSCNRLNRAPQPDELPEVDNLTLDGNPFLVPGTALPHEGSMN
modifications: labelled with DyLight 488 in the MST experiment and where it was the soluble partner in the ELISA; unlabelled where coated on the plate and in the co-IP
notes: CD14, soluble recombinant form; also called sCD14; purified soluble CD14; source: bought: Sino Biological, Inc
  Kd: 1010 nM

Reference: article PMC4835703, “Cellular uptake of exogenous calcineurin B is dependent on TLR4/MD2/CD14 complexes, and CnB is an endogenous ligand of TLR4” (Scientific Reports, 2016)
